The test system of series [1] is MS2 coat protein. The series can be described thus: apparent KD of MS2 coat protein, switch ON state; designed switch direction (-1 OFF switch, 1 ON switch): 1; higher = weaker reporter binding. As to conditions: FMN input: 0 or 200 uM; Eterna round: R93 (includes R88 designs). The method, boiled down:
(§1)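 Apparent KD was obtained for each design as the median of normalised binding-curve fits over its clusters. RNA switches transcribed on-chip from Illumina sequencing clusters were titrated with SNAP-549-labelled MS2 coat protein (twofold steps, 0.7 or 1.5 nM to 3 µM) in 100 mM Tris-HCl pH 7.5, 80 mM KCl, 4 mM MgCl2, without or with constant ligand.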

For series [2], the system named is MS2 coat protein. The series can be described thus: apparent KD of MS2 coat protein, switch OFF state (with FMN for OFF switches, without FMN for ON switches); designed switch direction (-1 OFF switch, 1 ON switch): 1; higher = weaker reporter binding. As to conditions: FMN input: 0 or 200 uM; Eterna round: R93 (includes R88 designs). The method, boiled down: as §1

“AACUACAUUAUGAAGGAUAUCCACAUCAAGACAUGAGGAUCACCCAUGUAUACUUAGAUCAUACAGGAGAAGGUCAAGGGUGAAU [JR_SS002_Sub1207]”: the “apparent KD of MS2 coat protein” value is 244 nM in the series with MS2 coat protein [1] and 89.2 nM in the series with MS2 coat protein [2].
Take “AAUCCAAAUAGUUAGGAUAUGGGAAUUAAGACAUGAGGAUCACCCAUGUCAUUAAAACAAGUUAACCAGAAGGGACAGGGUGAAA [JR_SS002_Sub208]”: the “apparent KD of MS2 coat protein” value in the series on MS2 coat protein [1] was 14.7 nM; in the series on MS2 coat protein [2], 26.6 nM.
The like results for “GGGAGACAUGAGGAUCACCCAUGUGAAAACGUGCGAGGAUAUGAAUGGAAACCAUACUGUUCAGAAGGCGUUUGUC [Titus Petronius Secundus]” were, in that order, 46.5 nM and 69.2 nM.
“UAGAGACAUGAGGAUCACCCAUGUAGGAUUAUGGGAGGAUAUACAAAGACGAGAGUCAGAGUAGAAGGCCUAGGAC [salish99-ss1-136(!)]”: the “apparent KD of MS2 coat protein” value in the series with MS2 coat protein [1] worked out at 21.4 nM; with MS2 coat protein [2] it was 60.1 nM.
Turning to “UGGAGACAUGAGGAUCACCCAUGUGAGAAGAGGCGAGGAUAUCGAAAGAAAGAAGAGAAACGAGAAGGCGCGAGAC [salish99-SS1-045]”, the figures for the “apparent KD of MS2 coat protein” value in the series with MS2 coat protein [1] and in the series with MS2 coat protein [2] were 25.2 nM and 41.9 nM, respectively.
The corresponding values for “GAAAUACAUGAGGAUCACCCAUGUUAGGUAAAACAAGGAUAUCUAGAUAAAUAAAAAUAUAGAGAAGGUGUAUAAA [JR_SS001_Sub206]” are 20.6 nM and 25.1 nM.
The corresponding values for “AUGAAAGUAACGCAGGAUAUCCAGGAUACAACAUGAGGAUCACCCAUGUACAUACGAACGUAUAAGGAGAAGGGUGGAUGAUCUUC [ss2-3]” are 56.7 nM and 48.2 nM.
“AAGAAACAUGAGGAUCACCCAUGUGAUAAUAUGGGAGGAUAUACAAAGACGAAAGACGAAGUAGAAGGCCUAAGAA [Garnet 47]”: the “apparent KD of MS2 coat protein” value in the series on MS2 coat protein [1] is 56.3 nM; in the series with MS2 coat protein [2] it was 114 nM.
For the sequence “AGGAGACAUGAGGAUCACCCAUGUGAGAAGAGGCGAGGAUAUCGAAAGAAAGAAGAGAAACGAGAAGGCGCGAGAC [salish99-SS1-029]”, the entries for the “apparent KD of MS2 coat protein” value with MS2 coat protein [1] and in the series on MS2 coat protein [2] were 15.4 nM and 33.6 nM, respectively.
The like results for “CGAAGACAUGAGGAUCACCCAUGUCGUCGUAACAGAGGAUAUGGGAACGCCAAGGGCGCAUCAGAAGGCUGAAAAC [Gediaton]” were, in that order, 16.2 nM and 31 nM.
Regarding “AUAAAAUAAAAGGAGGAUAUCCUUAAUAAAACAUGAGGAUCACCCAUGUAAAAAAUAAUAAAAUGGGAGAAGGCCUAAAAUAAAU [SS2 M 26]”, the “apparent KD of MS2 coat protein” value with MS2 coat protein [1] stood at 24.2 nM; in the series with MS2 coat protein [2] it was 64.2 nM.
For “AAAAAACAUGAGGAUCACCCAUGUAAAAUUAUGGGAGGAUAUGGAAACACGAAAGUGAAACCAGAAGGCCUAAAAG [77%, Mat - Mod of Eli, 11]”, the “apparent KD of MS2 coat protein” value with MS2 coat protein [1] came out at 25.1 nM; in the series on MS2 coat protein [2], 49.7 nM.
The like results for “UAUAGACAUGAGGAUCACCCAUGUAGAAUUAUGGGAGGAUAUACAAAGACGAGAGUCAGAGUAGAAGGCCUAGGAU [salish99-ss1-154]” were, in that order, 22.2 nM and 63.7 nM.
For the sequence “CAUCAUGCGCCUAAGGAUAUGUCUCACAAGACAUGAGGAUCACCCAUGUAGAAUAAAUAAAUGAUGCAGAAGGUGGAGCGCAUAC [Beusesce]”, the “apparent KD of MS2 coat protein” value in the series with MS2 coat protein [1] was determined as 61.9 nM; with MS2 coat protein [2], 507 nM.
The corresponding values for “AAAAAAAAAAAUAAGGAUAUGUGAUCGGUGACAUGAGGAUCACCCAUGUAAGGCCUCCGGGACGGGCAGAAGGUAUAAAAAAAAA [Same State2-III]” are 491 nM and 607 nM.
The like results for “AAGAAACAUGAGGAUCACCCAUGUGAGAUAAACACAGGAUAUGCGAAAAGAAAUAAAUAAGCAGAAGGGUGAAGAA [Mat - Same State 1 - Tesla mod - 70]” were, in that order, 26.4 nM and 62.6 nM.
The corresponding values for “GUGGCCUAGGCACAGGAUAUGUUGCUCGUAACAUGAGGAUCACCCAUGUGCCUAUGAGAUUUAAUGCAGAAGGGUGCACGCCACG [Edbeso]” are 14.7 nM and 233 nM.
With “CGGAGACAUGAGGAUCACCCAUGUGAGAAGAGGCGAGGAUAUCGAAAGAAAGAAGAGAAACGAGAAGGCGCGAGAU [salish99-SS1-069]”, the “apparent KD of MS2 coat protein” value in the series on MS2 coat protein [1] worked out at 20.4 nM; in the series on MS2 coat protein [2], 29.8 nM.
“AAAUAACAUGCGCAGGAUAUGAGACCGAUAACAUGAGGAUCACCCAUGUUAAGGAAGAAAUAAAAUCAGAAGGGUGGGUGGACCU [Aatteri]”: the figures for the “apparent KD of MS2 coat protein” value in the series on MS2 coat protein [1] and in the series on MS2 coat protein [2] were 25.7 nM and 26.6 nM, respectively.
The corresponding values for “AAAACACAUGAGGAUCACCCAUGUGCAAAAUUCGCAGGAUAUUUCUCGAUUAAAUGAUAGGAAGAAGGGUGAUAAA [Nob's Hobby 35 - Jieux - Same State 1]” are 25.8 nM and 33.7 nM.
The like results for “UACACGCUGGCGCAGGAUAUGUCGCUGGUGACAUGAGGAUCACCCAUGUAUACCAUUGCGGUUAAGCAGAAGGGUGAGAAGCGUG [Bidibeso]” were, in that order, 23.5 nM and 89.8 nM.
With “AAAGACAUGGUGCAGGAUAUAUUAAUAGUCACAUGAGGAUCACCCAUGUUCAGAUAUCUGAACGAGUAGAAGGGCGAUGAAAAAA [SameState2 Malc#5]”, the results for the “apparent KD of MS2 coat protein” value in the series with MS2 coat protein [1] and in the series with MS2 coat protein [2] were 88.9 nM and 61.9 nM, respectively.
The corresponding values for “ACAAAACAUGAGGAUCACCCAUGUCGACUAAAUCAAGGAUAUGGGAAUGCGAAAGCAAAGCCAGAAGGUGAGGUCC [Xeorarbiar]” are 294 nM and 185 nM.
The corresponding values for “UGUUCGAGUAGUGAGGAUAUUCAUGGGCCCACAUGAGGAUCACCCAUGUAAAGGACCGGGCCGAAGGAGAAGGCGCGUAAAAUUA [Esenan]” are 28.9 nM and 73.3 nM.
In the case of “AGAAAUAAAAGAGAGGAUAUCCAAAAUAAAACAUGAGGAUCACCCAUGUGUACGAAAGUACAAUGGGAGAAGGCUCAAAAUAAAG [80% More Helter Skelter 2 + Hairpin]”, the “apparent KD of MS2 coat protein” value in the series on MS2 coat protein [1] was determined as 1280 nM; with MS2 coat protein [2] it was 6.54 nM.
In the case of “AGAAAUAAAACACAGGAUAUCCAAAAGAAAACAUGAGGAUCACCCAUGUAAAAGAAAAUAAAAUGGGAGAAGGGUGAAAAUAAAG [Breaking Jandersonlee's winner (80%)]”, the “apparent KD of MS2 coat protein” value with MS2 coat protein [1] came to 38 nM; with MS2 coat protein [2], 52.6 nM.
The corresponding values for “AGCACGUGAUUGGAGGAUAUGUUGUAAGCAACAUGAGGAUCACCCAUGUCUGAGGCUGAAAAGCAGCAGAAGGCCGAUACAACCA [SS2-1.3]” are 37.2 nM and 110 nM.
The like results for “AUAUAUAAAAGAUAGGAUAUACUAAAAUAAACAUGAGGAUCACCCAUGUAAAAAAAGAAACUCAUGUAGAAGGAUCAUAUAUAUA [ss2 7th]” were, in that order, 46.5 nM and 246 nM.
For “GGGAGACAUGAGGAUCACCCAUGUGAGAAGAGGCGAGGAUAUCGAAAGAAAGAAGAGAAACGAGAAGGCGCGAGUA [salish99-SS1-050]”, the “apparent KD of MS2 coat protein” value is 29.7 nM in the series on MS2 coat protein [1] and 65.5 nM with MS2 coat protein [2].
“AAAUUACAUGAGGAUCACCCAUGUAGCGACGUGACAGGAUAUGUGGGUGAAAAUAGCAUGACAGAAGGGUCCCGUA [SameState1 Malc#40]”: the “apparent KD of MS2 coat protein” value in the series on MS2 coat protein [1] came out at 57.8 nM; in the series with MS2 coat protein [2], 23.1 nM.
Take “GAAAAACAUGAGGAUCACCCAUGUGUAAAUAUGGGAGGAUAUACAAAGACGUAAGUCAGAGUAGAAGGCCUAAAAG [Garnet 93]”: the “apparent KD of MS2 coat protein” value was found to be 29 nM in the series with MS2 coat protein [1] and 176 nM in the series with MS2 coat protein [2].
As for “UCAGUGCCGACGAAGGAUAUAGCGGGUGAGACAUGAGGAUCACCCAUGUAUGCAGAACUCAUCCUCUAGAAGGUUGAGACGGCAA [Onaaror]”, the “apparent KD of MS2 coat protein” value with MS2 coat protein [1] came out at 101 nM; in the series with MS2 coat protein [2], 84.3 nM.
The like results for “CGAGUACAUGAGGAUCACCCAUGUUAUGAAUUGUCAGGAUAUGGGUAGAGGUGACAUGCGCCAGAAGGGACGUCUG [JR_SS001_Sub1005]” were, in that order, 194 nM and 52.8 nM.
For the sequence “AGCACGGGAUUGGAGGAUAUGUUGUUUGCAACAUGAGGAUCACCCAUGUCUGAGGCUGAAAAGCAGCAGAAGGCCGAUACAACCA [SS2-1.2]”, the entries for the “apparent KD of MS2 coat protein” value in the series on MS2 coat protein [1] and in the series with MS2 coat protein [2] were 43.8 nM and 367 nM, respectively.
With “AAAAUACAUGAGGAUCACCCAUGUCCGACAAAUCAAGGAUAUGAUAGCCAAACCAAGCUGUUAGAAGGUGAAAGAA [Edengere]”, the “apparent KD of MS2 coat protein” value was found to be 499 nM in the series with MS2 coat protein [1] and 208 nM with MS2 coat protein [2].
Take “AGGAGACAUGAGGAUCACCCAUGUGAGAAGAGGCGAGGAUAUCGAAAGAAAGAAAGAAAACGAGAAGGCGCGAGAA [salish99-SS1-016]”: the “apparent KD of MS2 coat protein” value in the series with MS2 coat protein [1] is 28 nM; with MS2 coat protein [2] it was 42.8 nM.
The corresponding values for “AAUCCAACUAGUCAGGAUAUCAGGCGUAAGACAUGAGGAUCACCCAUGUCCUUAGUACAAGUAACUGAGAAGGGACAGGGCGACC [JR_SS002_Sub410]” are 74.9 nM and 39.5 nM.
Turning to “AAAAGACAUGAGGAUCACCCAUGUUAAGACGUAGGAGGAUAUGUCGUGAAAAAAGACUUGACAGAAGGCCUGUGUC [SS1 - 38]”, the “apparent KD of MS2 coat protein” value amounted to 16 nM in the series on MS2 coat protein [1] and 20.4 nM in the series on MS2 coat protein [2].
The corresponding values for “GAAGACAUAGUACAGGAUAUAUGAAUAGUCACAUGAGGAUCACCCAUGUCCAUUUAUAUGGGCACAUAGAAGGGUGGUAGUUGUC [Mat - Same state - Malcolm Mod - D125]” are 8.69 nM and 35.3 nM.

The values are drawn from the supplement of paper PMC9170038.
